Experimental data taken from patent publication US5807729A, “Metalloprotease having increased activity” (Novo Nordisk A/S, priority 1995, dated 1998).

Assays:
[1] = tested on: pro-trypsin-like F. oxysporum protease; assay: Second pH profile, pro-trypsin-like F. oxysporum protease assay; type: biochemical, Fusarium oxysporum; conditions: 15 minutes, room temperature
Procedure: A second pH profile is determined utilizing the pro-trypsin-like F. oxysporum protease assay whereby p45 metalloprotease activity is determined based on the processing of pro-trypsin-like F. oxysporum protease to active trypsin-like F. oxysporum protease Reaction mixtures contain 125 ug of purified pro-trypsin-like F. oxysporum protease and 0.13 ug of purified p45 metalloprotease (i.e. a molar ratio of pro-trypsin-likeF. oxysporum protease/ p45=1750:1) are added to "universal-buffer" solutions prepared at different pH's (i.e. pH values of 2.72, 4.11, 5.2, 6.05, 6.46, 6.98, 8.18, 9.02, 10.03, and 11.01) and the reaction mixtures are incubated for 15 minutes at room temperature. After incubation, 5 microliters are taken from each sample and added to microtiter wells containing 90 microliters of sample buffer (i.e. 0.1M borate, 2 mM CaCl2, and 10 mM DMG, pH 6.5), and 10 microliters of phosphoramidon (20 ug). […] Phosphoramidon is added to inhibit p45 activity and stop any further maturation of pro-trypsin-like F. oxysporum protease.

[2] = tested on: FAGLA: N-(3-[2-Furyl]Acryloyl)-Gly-Leu amide; assay: FAGLA hydrolysis (345 nm); type: biochemical
Procedure: The thermolytic substrate FAGLA: N-(3-[2-Furyl]Acryloyl)-Gly-Leu amide is used to further characterize the p45 metalloprotease and B.t. thermolysin. Reaction mixtures contain 100 microliters of N-(3-[2-Furyl]Acryloyl)-Gly-Leu amide (FAGLA) (2 mM) and 100 microliters of various concentrations of either thermolysin (Boehringer Mannheim) or purified p45 metalloprotease. Thermolytic activity is determined as a decrease in absorbance at 345 nm on the recording spectrometer for one minute(Shimadzu, UV160U). The linear range of the assay for thermolysin is 10-500 ug/ml thermolysin in the assay mix.

B1: p45 Metalloprotease: metalloprotease purified from Fusarium oxysporum DSM 2672 broth, 45 kDa band; also produced recombinantly in A. oryzae (protein)
chain: MRFSDSLLLIGLSSLAGAHPSRRAPNPSPLSKRGLDLEAFKLPPMAEYVPQDEVPDDVSAKVVTKRADYTETAKDLVKSTFPKATFRMVTDHYVGSNGIAHVNFKQTVNGIDIDNADFNVNIGADGEVFSYGNSFYEGKIPGPLTKRDEKDPVDALKDTVDVLSLPVEADKAKAEKKSKNHYTFTGTKGTVSKPEAKLTYLVDENKELKLTWRVETDIVDNWLLTYVNAAKTDEVVGVVDYVNEATYKVYPWGVNDPSKGSRSTVENPWNLAASEFTWLSDGSNNYTTTRGNNGIAQVNPSGGSTYLNNYRPDSPSLKFEYDYSTSTTTPTTYRDASIAQLFYTANKYHDLLYLLGFTEQAGNFQTNNNGQGGVGNDMVILNAQDGSGTNNANFATPADGQPGRMRMYLWTYSTPQRDCSFDAGVVIHEYTHGLSNRLTGGPANSGCLPGGESGGMGEGWGDFMATAIHIQSKDTRASNKVMGDWVYNNAAGIRAYPYSTSLTTNPYTYKSVNSLSGVHAIGTYWATVLYEVMWNLIDKHGKNDADEPKFNNGVPTDGKYLAMKLVVDGMSLQPCNPNMVQARDAIIDADTALTKGANKCEIWKGFAKRGLGTGAKYSASSRTESFALPSGC
For B1, the “level of processed pro-trypsin-like protease at pH 6.5 relative to the level at pH 9” value [1] was “approximately 24%”, the “pH of maximum levels of processed pro-trypsin-like protease” value ([1]; molar ratio pro-trypsin/p45 1750:1) was 9.5 and the “Specific Activity, substrate FAGLA” value [2] was 0.76 -AU/sec*mg. The “specific activity for FAGLA, times lower than that of thermolysin” value [2] was “approximately 250 times”.
